The data set concerns the molecule itself. The experiment in a line: SEC; gel filtration of the purified EDs; data not shown.

B1: Alb/76 NS1 effector domain (ED), residues 73-230 (domain or fragment)
chain: TDENLKIAIASSPAPRYITDMSIEEISREWYMLMPRQKITGGLMVKMDQAIMDKRITLKANFSVLFDQLETLVSLRAFTDDGAIVAEISPIPSMPGHSTEDVKNAIGILIGGLEWNDNSIRASENIQRFAWGIRDENGGPPLPPKQKRYMARRVESEV
notes: also called Alb/76 ED; Alb/76 NS1 ED
Turning to B1, the “stoichiometry N” value amounted to 2.

B2: PR8 NS1 effector domain (ED), wild type, residues 73-230 (domain or fragment)
chain: SDEALKMTMASVPASRYLTDMTLEEMSRDWSMLIPKQKVAGPLCIRMDQAIMDKNIILKANFSVIFDRLETLILLRAFTEEGAIVGEISPLPSLPGHTAEDVKNAVGVLIGGLEWNDNTVRVSETLQRFAWRSSNENGRPPLTPKQKREMAGTIRSEV
notes: also called PR8 ED; PR8 NS1 ED
For B2, the “stoichiometry N” value amounted to 2.

The record behind these values is PMC3065461, “A Transient Homotypic Interaction Model for the Influenza A Virus NS1 Protein Effector Domain” (PLoS ONE, 2011).
